Measurements reported in US7611713.

Biological target: HLA-B*0701 (as printed in the head of Table XXII) (human)
Assay: competitive inhibition of radiolabeled standard peptide binding to purified HLA

## HBV ENV 313 analog with F at position 1 (peptide; other documents disagree on this pair)
  IC50: 0.024 µM
